According to patent US20250011363A1 (published 2025):

B1: 6mer-2-233 (peptide)
peptide: KWRQKR
B2: 6mer-2-136 (peptide)
peptide: RWRYKR
B3: 5mer-73 (peptide)
peptide: RRQRR
B4: 5mer-311 (peptide)
peptide: RSYSR
B5: 6mer-1-43 (peptide)
peptide: RKRIRR
B6: 6mer-1-210 (peptide)
peptide: RRGVRR

target: acetylcholine receptor on acetylcholine receptor-overexpressing TE671 cells; assay: cell-based or functional assay

Inhibition of acetylcholine receptors (calcium imaging with Fura-2-AM, TE671 cells, nicotine 400 uM), 10 µM:
B1
B2
B3
B4
B5
B6
